Consider seven sequences from the supplement of paper PMC11246515.

± gives the standard deviation of the averaged measurements. Some results are limits rather than exact numbers.

The nature of the series: total protein half-life in vivo (active degradation + dilution); higher = more stable protein.
The mark [1] stands for this setting: E. coli NCM3722 delta-clpP delta-lon delta-hslV, growth: N-lim chemostat, doubling time 6 h.
Setting [2] is: E. coli NCM3722 delta-clpP, growth: N-lim chemostat, doubling time 6 h.
Setting [3] is: E. coli NCM3722 delta-hslV, growth: N-lim chemostat, doubling time 6 h.
Setting [4] is: E. coli NCM3722 delta-lon, growth: N-lim chemostat, doubling time 6 h.
[5] abbreviates: E. coli NCM3722 delta-smpB, growth: N-lim chemostat, doubling time 6 h.
The mark [6] stands for this setting: wild type E. coli NCM3722, growth: C-lim chemostat, doubling time 3 h.
Where [7] appears, read: wild type E. coli NCM3722, growth: C-lim chemostat, doubling time 6 h.
[8] abbreviates: wild type E. coli NCM3722, growth: C-lim chemostat, doubling time 12 h.
Setting [9] is: wild type E. coli NCM3722, growth: N-lim chemostat, doubling time 6 h.
Setting [10] is: wild type E. coli NCM3722, growth: N-lim chemostat, doubling time 12 h.
The mark [11] stands for this setting: wild type E. coli NCM3722, growth: P-lim chemostat, doubling time 6 h.
The mark [12] stands for this setting: wild type E. coli NCM3722, growth: P-lim chemostat, doubling time 12 h.

In the case of “MKKFAAVIAVMALCSAPVMAAEQGGFSGPSATQSQAGGFQGPNGSVTTVESAKSLRDDTWVTLRGNIVERISDDLYVFKDASGTINVDIDHKRWNGVTVTPKDTVEIQGEVDKDWNSVEIDVKQIRKVNP [P0ADU5]”, the “total protein half-life in vivo” value by setting is: under setting [1], 3.85 ± 0.19 h; under setting [2], 5.07 ± 0.71 h; under setting [3], 5.86 ± 0.11 h; under setting [4], 6.2 ± 0.35 h; under setting [5], 5.91 ± 0.28 h; under setting [6], 2.89 ± 0.69 h. Also, the “total protein half-life in vivo” value came out at 5.83 ± 0.75 h under setting [7]; 6.74 ± 1.2 h under setting [8]; 6.22 ± 0.79 h under setting [9]; 11.8 ± 0.34 h under setting [10]; 4.72 ± 0.64 h under setting [11]; 7.98 ± 1.5 h under setting [12].

Turning to “MSLSLWQQCLARLQDELPATEFSMWIRPLQAELSDNTLALYAPNRFVLDWVRDKYLNNINGLLTSFCGADAPQLRFEVGTKPVTQTPQAAVTSNVAAPAQVAQTQPQRAAPSTRSGWDNVPAPAEPTYRSNVNVKHTFDNFVEGKSNQLARAAARQVADNPGGAYNPLFLYGGTGLGKTHLLHAVGNGIMARKPNAKVVYMHSERFVQDMVKALQNNAIEEFKRYYRSVDALLIDDIQFFANKERSQEEFFHTFNALLEGNQQIILTSDRYPKEINGVEDRLKSRFGWGLTVAIEPPELETRVAILMKKADENDIRLPGEVAFFIAKRLRSNVRELEGALNRVIANANFTGRAITIDFVREALRDLLALQEKLVTIDNIQKTVAEYYKIKVADLLSKRRSRSVARPRQMAMALAKELTNHSLPEIGDAFGGRDHTTVLHACRKIEQLREESHDIKEDFSNLIRTLSS”, the “total protein half-life in vivo” value reads like this: under setting [1], 5.49 ± 0.27 h; under setting [2], 4.24 ± 0.24 h; under setting [3], 2.83 ± 0.047 h; under setting [4], 3.85 ± 0.16 h; under setting [5], 2.8675 ± 0.00078 h; under setting [6], 2.183 ± 0.021 h. Further, the “total protein half-life in vivo” value under setting [7] was 3.897 ± 0.019 h; the “total protein half-life in vivo” value under setting [8] came to 5.25 ± 0.15 h; the “total protein half-life in vivo” value under setting [9] was found to be 2.94 ± 0.26 h; the “total protein half-life in vivo” value under setting [10] was determined as 3.79 ± 0.058 h; the “total protein half-life in vivo” value under setting [11] was 3.61 ± 0.12 h; the “total protein half-life in vivo” value under setting [12] turned out to be 6.1 ± 0.38 h.

Turning to “MNIRDLEYLVALAEHRHFRRAADSCHVSQPTLSGQIRKLEDELGVMLLERTSRKVLFTQAGMLLVDQARTVLREVKVLKEMASQQGETMSGPLHIGLIPTVGPYLLPHIIPMLHQTFPKLEMYLHEAQTHQLLAQLDSGKLDCVILALVKESEAFIEVPLFDEPMLLAIYEDHPWANRECVPMADLAGEKLLMLEDGHCLRDQAMGFCFEAGADEDTHFRATSLETLRNMVAAGSGITLLPALAVPPERKRDGVVYLPCIKPEPRRTIGLVYRPGSPLRSRYEQLAEAIRARMDGHFDKVLKQAV [P0ACQ4]”, the “total protein half-life in vivo” value is 6.42 ± 0.14 h under setting [1]; 6.57 ± 1.4 h under setting [2]; 4.79 ± 0.37 h under setting [3]; 4.56 ± 0.12 h under setting [4]; 4.11 ± 0.24 h under setting [5]; 2.62 ± 0.37 h under setting [6]. The “total protein half-life in vivo” value was 5.1 ± 0.76 h under setting [7]; 9.67 ± 2.1 h under setting [8]; 4.51 ± 0.26 h under setting [9]; 10.4 ± 2.9 h under setting [10]; 4.768 ± 0.012 h under setting [11]; 9.98 ± 0.13 h under setting [12].

For “MFKRRYVTLLPLFVLLAACSSKPKPTETDTTTGTPSGGFLLEPQHNVMQMGGDFANNPNAQQFIDKMVNKHGFDRQQLQEILSQAKRLDSVLRLMDNQAPTTSVKPPSGPNGAWLRYRKKFITPDNVQNGVVFWNQYEDALNRAWQVYGVPPEIIVGIIGVETRWGRVMGKTRILDALATLSFNYPRRAEYFSGELETFLLMARDEQDDPLNLKGSFAGAMGYGQFMPSSYKQYAVDFSGDGHINLWDPVDAIGSVANYFKAHGWVKGDQVAVMANGQAPGLPNGFKTKYSISQLAAAGLTPQQPLGNHQQASLLRLDVGTGYQYWYGLPNFYTITRYNHSTHYAMAVWQLGQAVALARVQ”, the “total protein half-life in vivo” value was determined as 5.38 ± 0.079 h under setting [1]; 5.65 ± 2 h under setting [2]; 5.5 ± 0.089 h under setting [5]; 3.61 h under setting [6]; 5.55 ± 0.14 h under setting [9]; 10.8 h under setting [10]. In addition, the “total protein half-life in vivo” value under setting [11] was 5.1 h and the “total protein half-life in vivo” value under setting [12] was over 16 h.

With “MIQPISGPPPGQPPGQGDNLPSGTGNQPLSSQQRTSLESLMTKVTSLTQQQRAELWAGIRHDIGLSGDSPLLSRHFPAAEHNLAQRLLAAQKSHSARQLLAQLGEYLRLGNNRQAVTDYIRHNFGQTPLNQLSPEQLKTILTLLQEGKMVIPQPQQREATDRPLLPAEHNALKQLVTKLAAATGEPSKQIWQSMLELSGVKDGELIPAKLFNHLVTWLQARQTLSQQNTPTLESLQMTLKQPLDASELAALSAYIQQKYGLSAQSSLSSAQAEDILNQLYQRRVKGIDPRVMQPLLNPFPPMMDTLQNMATRPALWILLVAIILMLVWLVR”, the “total protein half-life in vivo” value amounted to 3.57 ± 0.29 h under setting [1]; 3.889 ± 0.021 h under setting [2]; 3.71 ± 0.25 h under setting [3]; 3.18 ± 0.34 h under setting [4]; 3.56 ± 0.12 h under setting [5]; 2.64 ± 0.22 h under setting [6]. For the same sequence, the “total protein half-life in vivo” value runs as follows: under setting [7], 4.57 ± 0.41 h; under setting [8], 6.56 h; under setting [9], 3.65 ± 0.16 h; under setting [10], 5.38 ± 0.4 h; under setting [11], 3.705 ± 0.012 h; under setting [12], 6.51 ± 0.24 h.

As for “MAYKHIGVAISGNEEDALLVNKALELARHNDAHLTLIHIDDGLSELYPGIYFPATEDILQLLKNKSDNKLYKLTKNIQWPKTKLRIERGEMPETLLEIMQKEQCDLLVCGHHHSFINRLMPAYRGMINKMSADLLIVPFIDK [P0AAB8]”, the “total protein half-life in vivo” value under setting [1] came out at 4.18 ± 0.41 h; the “total protein half-life in vivo” value under setting [2] turned out to be 3.79 ± 0.29 h; the “total protein half-life in vivo” value under setting [3] turned out to be 3.73 h; the “total protein half-life in vivo” value under setting [4] was 4.56 ± 0.14 h; the “total protein half-life in vivo” value under setting [5] worked out at 2.7 ± 0.18 h; the “total protein half-life in vivo” value under setting [6] was 2.99 h. The “total protein half-life in vivo” value under setting [7] came out at 5.49 h; the “total protein half-life in vivo” value under setting [8] amounted to 9.51 ± 0.66 h; the “total protein half-life in vivo” value under setting [9] came to 3.69 h; the “total protein half-life in vivo” value under setting [10] was 5.52 ± 0.12 h; the “total protein half-life in vivo” value under setting [11] stood at 4.66 ± 0.43 h; the “total protein half-life in vivo” value under setting [12] was 10.7 ± 0.12 h.

For the sequence “MGMIGYFAEIDSEKINQLLESTEKPLMDNIHDTLSGLRRLDIDKRWDFLHFGLTGTSAFDPAKNDPLSRAVLGEHSLEDGIDGFLGLTWNQELAATIDRLESLDRNELRKQFSIKRLNEMEIYPGVTFSEELEGQLFASIMLDMEKLISAYRRMLRQGNHALTVIVG”, the “total protein half-life in vivo” value came to 2.19 h under setting [3]; 1.91 ± 0.022 h under setting [5]; 1.89 h under setting [6]; 4.04 h under setting [7]; 4.57 h under setting [8]; 3.44 ± 0.17 h under setting [11]. For the same sequence, the “total protein half-life in vivo” value under setting [12] stood at 6.19 ± 0.12 h.
